Reference: publication PMC7954794, “Protein context shapes the specificity of SH3 domain-mediated interactions in vivo” (Nature Communications, 2021)

Tests used:
Assay type in all cases: cell-based, Saccharomyces cerevisiae
[1] = system: ABP1; assay: DHFR-PCA on solid medium, bait ABP1 (Fig. 1B); conditions: bait ABP1, label = prey; for medrep (log2 median colony size normalized to plate background, PCA score): 2-4 replicates; for Ratio (SH3-deleted/WT medrep): only significant differences showed, PPIs completely lost have a ratio of 0.1 and the gained PPIs 2.5
From the text: (§1) Supplement 41467_2021_21873_MOESM8_ESM.xlsx, sheet "Fig1B" | column: medsize; medrep; Ratio; Score

[2] = system: BEM1-2; assay: DHFR-PCA on solid medium, bait BEM1-2 (Fig. 1B); conditions: bait BEM1-2, label = prey; for medrep (log2 median colony size normalized to plate background, PCA score): 2-8 replicates; for Ratio (SH3-deleted/WT medrep): only significant differences showed, PPIs completely lost have a ratio of 0.1 and the gained PPIs 2.5
From the text: as §1

[3] = system: BEM1-1; assay: DHFR-PCA on solid medium, bait BEM1-1 (Fig. 1B); conditions: bait BEM1-1, label = prey; for medrep (log2 median colony size normalized to plate background, PCA score): 2-8 replicates; for Ratio (SH3-deleted/WT medrep): only significant differences showed, PPIs completely lost have a ratio of 0.1 and the gained PPIs 2.5
From the text: as §1

Molecule | medrep (log2 median colony size normalized to plate background, PCA score) [1] | Ratio (SH3-deleted/WT medrep) [1] | medrep (log2 median colony size normalized to plate background, PCA score) [2] | Ratio (SH3-deleted/WT medrep) [2] | medrep (log2 median colony size normalized to plate background, PCA score) [3] | Ratio (SH3-deleted/WT medrep) [3]
YER008C (protein, UniProt P33332 1-1336, looked up) Exocyst complex component SEC3: MRSSKSPFKRKSHSRETSHDENTSFFHKRTISGSSAHHSRNVSQGAVPSSAPPVSGGNYSHKRNVSRASNSSQTSNFLAEQYERDRKAIINCCFSRPDHKTGEPPNNYITHVRIIEDSKFPSSRPPPDSKLENKKKRLLILSAKPNNAKLIQIHKARENSDGSFQIGRTWQLTELVRVEKDLEISEGFILTMSKKYYWETNSAKERTVFIKSLITLYIQTFEGHVPELVNWDLSLFYLDERSYQRAVITNRPGSVSPIKSPTSNFTTNTTQSVGSVPFSAPTERTRRSETESVNPVSTPASVEYHAGMKSLNKAPYSSNSTLNEVNKRYELEQQQQQEEAELRRLEEQKRLQLQKENEMKRLEEERRIKQEERKRQMELEHQRQLEEEERKRQMELEAKKQMELKRQRQFEEEQRLKKERELLEIQRKQREQETAERLKKEEQEALAKKEEEEKSKRNKVDNESYTQEINGKVDNLLEDLNAVLAEETETTPTMQNGTYVPERSTARAHDQLKKPLNIAKVESLGGSDLNDSISLSDEIAGLNTSNLSGEDQDEKNDLSFEKGDEVRYSNNFEGEAPHVYHEVSIIQEEAPAVSQKLILPEENNESEALIESKEEIKTMENIDDEVLLEILTDINWSIEDDADSMIERIDLRLAETEYLFNQNLLSLQKIGPNIRPYEDKVNDECHRIIPTLSLFLMEMSNFSNDIENVESQDNGLQVESANKKLLWNTLDELLKTVSLDEISLNQLLECPIREKNLPWMENQLNLLLKAFQAIGSDGNEVEYNLREISGLKQRLQFYEKVTKIFLNRIVEEMQKKFSNIRGQDISHDQMIRILTTLLIFSPLILFCKEISQKSYQAIVENWNVSIQPVYMELWTKKISQLQGIDTNDEKMNELSLSQLLNEWDTFRKERKTNDINPVFKNSFSLLTECLQTMRQECIVYQNFVEVFFHISSKHNFEEYIKHFNDPDAPPILLDTVKVMQSDREAAVIETQLVSRIFQPIVTRLSSYFVELVKAEPTVAPALTFYLENEIKSLESSNHEFLLSAVTRMYTQIKQVWSDNVEEQVLHFERISNATTNGEILPGILDLPVGLKNSEDLFQFAKRSMDIKDTDEGYESIELMNSSFRKLSIAATRSITHKEVNSSINPNLSDTAALNNDYMETISLLVNSNWLTEMLSMLNFNKDGIFDTSLQNVKKVFDVEKESYASFLLRDTMPKLTAFVYGVSNIIENTNNVNMTNPSRWAAYSRQNLENILLAYTSHEIETLVKRLHTHMVNDFGYHQENAINNVLCDKLWSCIQGQTVSLYLKLYTVIDKHYRGTNIRFTKNDIISAFEEYKNA | 1.509 | 2.5 | 1.89 | 0.1 | 1.89 | 0.1
YPR055W (protein, UniProt P32855 1-1065, looked up) Exocyst complex component SEC8: MDYLKPAQKGRRRGLSINSLSETQQSAMNSSLDHLQNDLNRINLQWNRILSDNTNPLELALAFLDDTSVGLGHRYEEFNQLKSQIGSHLQDVVNEHSQVFNTNVASYGKAVSSIMQAQEQTLNLKNCLKEANEKITTDKGSLQELNDNNLKYTKMIDVLVNIEELLQIPEKIEENIRKENFHQVQILLERGFILMNNKSLKTVEILKPINQQLELQEHLLFNNLIEEIHDIMYSKSNKTNFTRVTNNDIFKIISISHNGFTSLENYLYNIVNIDIMEHSKTINKNLEQFIHDQSLNKGNIMLQENAATQAPLAPSRNQENEGFNRIGFLLKTINNINKLPVAFNIITERAKEEIHNIIVKSTESIRSKHPSLLKMATSLKNDNHFGLPVQDILSIILRECFWEIFLKLLYAIQCHRAIFEMSNILQPTSSAKPAFKFNKIWGKLLDEIELLLVRYINDPELISSNNGSIKPINGATNNAPTLPKRKNPKIFSLEYNIEDNSSVKDQAFELKALLKDIFPGFSVSSNMDLDSIYVKDESFEQDEPLVPPSVFNMKVILDPFLLFTQSTSTIVPSVLTQNTISSLTFFDDYMNKSFLPKIQMTMDYLFTVEVESNNPYALELSDENHNIFKTALDFQRLFYNLLNVFNTANTFREKISYCILDLLNHFYNYYLGLFNSLIGTSDRHLTRKIITAWLQNGILMDQEQKILNGDETLFHEESIELFKEIPHFYQAGKGLSKSDLFNNLTLDTILQFSASVLWILNWLPGLKKAINIDEVSQEPMLDADRLRSSWTFSESMDLNYSNPSSSPNSLGNLKILLDDKASKKFDETIDGFKTLKFKLITILRFNIRALCIYDIGSFFQNTKIWNMDVGSIELDQNIASLISELRRTESKLKQQLPEKEKNSIFIGLDIVNNYALIKGAKSIKVLNHNGIKKMLRNVNVLQHAYRNLSSEPSKINMNVTMNFYSLCGSSEAELFEYIKDNELPHCSVEDLKTILRLQFSEEMHRQLKRQSTSSTKGSIKPSNKRYTEALEKLSNLEKEQSKEGARTKIGKLKSKLNAVHTANEK | 1.475 | 0.1 | 1.322 | 0.1 | 1.322 | 0.1
